# Experiment: soluble on expression in E. coli; label from the status in PepcDB or PDB records
row,Sequence,soluble on expression in E. coli
1,MSLEAKMEQIYQQIADTLVNIVPEEWKQILLYAEYREGYKKIFFYYYPETRIKPVYSLDITDLFHMNEDKYHELENKLYHCFSRLWEEFKEQEQQQWTNLTYTLDNTGRMKINYGYEDLFELSPVEKQEKWEAEYLEQEIEEGHHHHHH,soluble
2,MSLKVLICDDDKIVRDDIANIAKESGYVDYVKKVKDGIEAIEFIKNEKIDLLIIDIDMPYKNGIDSAEEILSIDKDIHIVFVTGFADYSLESFKVHPIDFVVKPFKKEKILDSINIAIDHINSHKIANNNFIEDTLFVYKIRKQIHMINFDDIVMFEKNSRAINLHTKDEDIIKFYENFDDLKKRLPPNFFMTHRQYIVNLRFIHKVIPINKSSLEIRFINFQENAILNKSLEKDFLYRFYREGHHHHHH,not soluble
3,MKKILLMLSLLFFTTAGFSEVSDTLVTGGYDKQAMSDAIKHARKETDKFIEVMNKKDADTFAVKAPITDHGRTEHFWLTDVTYSNGMFIGVISNDPGIVTNVEYGQEWKIKKEDISDWMYTRGDKIYGGYTIDPLLVTYPKEEADELRAKLVR,soluble
4,MWKRIALFLVVLLLAACGKTIPDAKNWPVEDFTFVDQTGKPFGLRDLKGKVWVADFIFTNCETVCPPMTAHMAKLKQMAKKEGLDVEFVSFSVDPEVDTPEKLAAYAKQFTDDLSNWHLLTGYSPAEISELAQKSFKTIVQKPANDDQVVHGTSFYLVGPDGKVVQTYSGVQDVPYETILEHIKIVQSSQ,not soluble
5,MSASSSSALPPLVPALYRWKSTGSSGRQVQRRCVGAEAIVGLEEKNRRALYDLYIATSLRNIAPASTLLTLQNLKEMFELALLDARFEHPECACTVSWDDEVPAIITYESPESNESARDWARGCIHVQPTAKSALDLWSEMEEGRAAANDNTPSKSIELFLLSDVSTDSTPIPQDATVEILFHSNHLFWDGIGCRKFVGDLFRLVGSYIGRSDSREMKKIQWGQEIKNLSPPVVDSLKLDINTLGSEFDDKCTEYTSALVANYKSRGMKFQPGLALPRCVIHKLSADESIDIVKAVKTRLGPGFTISHLTQAAIVLALLDHLKPNDLSDDEVFISPTSVDGRRWLREDIASNFYAMCQTAAVVRIENLKSITVSHKDEKELQVRALESACRNIKKSYRQWLENPFLQALGLRVHNFEASYLHAKPIPFEGEANPLFISDGINERFIPHEIKQTATGENVLSVESIDFVVNQSLPYLAIRLDSWRDASTLNIIYNDANYTEAEVQKYLQSIVEFMLAFRL,soluble
6,MGHHHHHHSHKVYWGVAWDRSDVAVKIYLSFTSDFRKSIRKYIVGDPRFEDIPAGNIRRLIYEWARKEYRNLRRMRESGVRVPRPVAVEANIIVMEFLGEKGYRAPTLAEAVEELDRGEAEAIAAEVLRQAEAIVCRARLVHADLSEYNILVWRGEPWIIDVSQAVPHSHPNAEEFLERDVENLHRFLTGKMGFEFDFDAYLSRLKS,not soluble
7,MKVLLINGSPHAKGCTYTALSEVAKALEEENIETEIFQIGTKPVRGCIGCGTCSKTGSGKCVFDDDTLNAGLEKAKTADGFIFGSPVHYAAASGALTSFLDRFFYAGKDFAYKPGAAIVSCRRGGAAAAFDQLNKYFTIANMPIVSSQYWNMVHGNTPEEVKQDLEGMQTMRTLGKNMAWLLKSIQAGKEAGVKLPEKEQTIRTNFIRLEHHHHHH,soluble
8,MGSSHHHHHHSSGLVPRGSHMASKNVSIIGSPLAAGQPLGGVQLACDDLRKLGLHNVIDVLGWKYEDIGNIDNGDNEMKQEKKTNNYINNNDNNNDNNNDNNNDNNNNCYIPNGVIKEKKHDLSNNKMNGYVNHNFYGNYEENNVISTNDKYKNNCYYDNIRNIKEIGIFSKNLFDTMSNELRKKNFVLNIGGDHGVAFSSILSSLQMYQNLRVIWIDAHGDINIPETSPSGNYHGMTLAHTLGLFKKKVPYFEWSENLTYLKPENTAIIGIRDIDAYEKIILKKCNINYYTIFDIEKNGIYNTICTALEKIDPNSNCPIHISLDIDSVDNVFAPGTGTVAKGGLNYREINLLMKILAETKRVVSMDLVEYNPSLDEVDKKVHGDSLPILDNATKTGKLCLELIARVLGYDIV,soluble
9,MTTLKLFDIEHAWGLPRKVSPRFGARLILRGLHLDYLHDRASFVGEFPPAIKQQFVEAFPAMVKQLERLVATGEIDTTEQHCVSIEHAGFTCEADTLGSHGYLYIAIYQTKAKPLTTSNLTITR,not soluble
10,KTKVGNQSPDVRFGLQNTFKIKDFTVNIDMDGAIGGTLISTTTQKMWWGGKHPKSTMYRQEEYDNGGKPVYVPEGVNIVSGEVTYDVNGNIVSDTRVYKKNETAVNIQTWAQNYPYRAVVRTEESELFANTFSRSFLKLRRVAVTYDLTKFIQSQFIKGLDVTVFGNNLAVLKKTPYLDPDFGASDGDLQDPSARYVGVSANIKF,not soluble
11,MKKYNIPVEATLEVIGGKWKVVILCHLTKGTKRTSELKRSMPGITQKMLTQQLRELEDDGVIQRKVYNQVPPKVEYSLTDYGWSLESILDSLCSWGECHLEKEGNTSMLIAEGE,not soluble
12,MGSDKIHHHHHHMHAVSHLASKDAQSNASPQVALIAEGGGQRGIFTAGVLDAWLDGGFDPFDLFIGTSAGSQNLSSFLARQKGYAKRLIRGLSRHKRFYRLGRGLVGGNVVDLDWYFEQTRQGMFKLDLNAATASLGHRQLLITTTNASDRKGYFLSPSSKSQWRELLKASSALPFLYKQGVKLTPWLNDNACNSDKACNNGAANHGGSHHSAALSEAIDSDFYLDGGLAAPLPVREAYRRGARKIVVIRTVSEDFQAQSAWVHKLKSWICVSGFCPKTIDYLVQHEQAYQDELDFIANPPEDVEIVQIFAAENLQSKLLGSTDADLRHDYHAGMNAGKQFLTQDPMALTQMNVHFQTQVQTNAHTQTHIQALSQIKPFSALSA,not soluble
13,MFKIGSVLKQIRQELNYHQIDLYSGIMSKSVYIKVEADSRPISVEELSKFSERLGVNFFEILNRAGMNTKSVNETGKEKLLISKIFTNPDLFDKNFQRIEPKRLTSLQYFSIYLGYISIAHHYNIEVPTFNKTITSDLKHLYDKRTTFFGIDCEIVSNLLNVLPYEEVSSIIKPMYPIVDSFGKDYDLTIQTVLKNALTISIMNRNLKEAQYYINQFEHLKTIKNISINGYYDLEINYLKQIYQFLTDKNIDSYLNAVNIINIFKIIGKEDIHRSLVEELTKISAKEKFTPPKEVTMYYENYVAIENNPIPEIKEQS,soluble
14,MSLGYHTLEVTVGNEAETATVISAPEKIELLDDMKNGSLWGWMSQLYSIRSKGSWGVGDFEDLKTMLVEAKKKTGSDFMLINPMHAAEPVPPLTPSPYLPISRRFINFSYIRPESMPEYLTLSHEDRAEVDALHEQVESLNDDARLIDRDAMWRVKKHALWVIYKAGRTKARQAEFDRYLAECGDEIESYATWCLCYDKWGAPSDDADNWVRKYNRDSEEVAQLREKFPDTLEFYRWLEWVATDQLHAAQQAARKAGMKIGIVADMAVGVHPAGSDVWWNPERFAKGATVGAPPDMFNQQGQDWSQPPLNPIALEQTGFKVYRDMVHDMFANAGAVRIDHILGLFRLWWIPEGKPATDGTYVHYDSDVMLGILALEASRAGGVVVGEDLGVVPAYVSKSLSEHGILGCAVEWFEQMDGVFRTPKDWRPYALASVNTHDMPPAAGYLEYGHVKLREQLGLLSGPVEEFQKSATAEHNAMLNMLVEEGYLDKAALDDEAANENEIVDALYRGLKGSPCKLMAASIVDAVGEKRTQNQPGTNNEYPNWRIPLADGEGNVVPLEKLFDEPRLQEITAIMREGHHHHHH,not soluble
15,MRSISVGLDREESGSDGLCLGLVVLATLAAGFVAGSDVLRCWGFGPATGDVCLWVEAGFWRCPLPGGGADGQGPGFWDAALREARMFCRSCVGLRMIGWRR,not soluble

# — the DeepSol protein solubility set
